Data as given in PMC9769707.

Target: T1, Dnr (Pseudomonas aeruginosa PAO1) (UniProt Q51441)
T1 sequence: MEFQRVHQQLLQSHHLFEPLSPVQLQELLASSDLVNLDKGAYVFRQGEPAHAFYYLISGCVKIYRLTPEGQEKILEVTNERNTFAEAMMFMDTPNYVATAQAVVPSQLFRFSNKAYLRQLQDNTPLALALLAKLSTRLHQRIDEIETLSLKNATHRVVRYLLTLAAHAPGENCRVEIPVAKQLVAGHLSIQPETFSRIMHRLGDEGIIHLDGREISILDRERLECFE
Test: EMSA

Sequence: GGCGGCTGACTCCGATGCAATGGTGGGGGAGCAATGCATCGGGGGGATGCCCTGATCATCGCAGTCCCTTGCTGGATCACAGGCATGACAGGGAAAACGGCGCAGAACCTGTCCTTGGCGATCCCTCTGGTCCGTCACTGGCGACGAACTACAAAAGACGCTAGAACAGGTCTATGGATTTGCAAAATAAAATTTTCGTTGGACTCCC (double strand) [hcp3 promoter fragment]
- binding: no binding
